This is an account of results in publication PMC9381478 (Cellular and Molecular Life Sciences: CMLS, 2022).

B3: S. pombe ubiquitin with an N-terminal 6xhistidine-tag, TEV-cleavage site and an N-terminal free cysteine (natural protein)
chain: not shown
notes: ubiquitin of S. pombe, the cut product of its precursors; An added free cysteine stands N-terminal of ubiquitin together with the tag and the TEV linker; Used 15N-labelled or unlabelled; also called 15N-labeled ubiquitin; 15N-ubiquitin; source: E. coli BL21(DE3), purified (nickel Sepharose, SEC); not shown: His6, N-terminal, kept; TEV cleavage site, N-terminal, kept

In test [1] the target is B3. Kind of test: NMR titration; 100 µM 15N-ubiquitin, unlabelled peptide or protein added or titrated (peptides to 1 mM, WT Dss1 peptide to 5 mM); 20 mM NaH2PO4, 150 mM NaCl, 5 mM TCEP, pH 7.5; CSPs of 1H-15N-HSQC, global fit to a one-site model. The note with it: both partners purified.
The target in test [2] is T1, Spd1 (full-length) (S. pombe, UniProt Q10585 1-124).
T1 construct: Spd1 of S. pombe; also called 15N-Spd1
T1 sequence (looked up): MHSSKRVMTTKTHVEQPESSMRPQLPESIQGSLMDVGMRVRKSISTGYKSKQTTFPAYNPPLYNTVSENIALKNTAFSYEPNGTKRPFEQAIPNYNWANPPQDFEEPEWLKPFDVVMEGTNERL
As to the kind of experiment: NMR titration; 30 µM 15N-Spd1 with 560 µM ubiquitin added; CSPs mapped on Spd1. The conditions noted are these: both partners purified.

B1: wild-type Dss1 peptide (peptide)
peptide: Ac-GDDTLWENNWDDEDI-NH2
notes: also called WT Dss1 peptide; UBS1 from Dss1; source: synthetic peptide, bought: TAG Copenhagen
For orientation: Kd means the constant that tells how readily two partners part at equilibrium. Read a high Kd as a looser complex. In the case of B1, the affinity in test [1], expressed as Kd, was 3000 ± 200 µM.

B2: Dss1 N71C (mentioned as "Dss1 WT") (natural protein, S. pombe, UniProt O14140 1-71, looked up)
chain: MSRAALPSLENLEDDDEFEDFATENWPMKDTELDTGDDTLWENNWDDEDIGDDDFSVQLQAELKKKGVAAC
notes: Dss1 (deleted in split hand/split foot 1) of S. pombe; Used unlabelled, 15N- or 13C,15N-labelled; also called full-length Dss1; WT Dss1; source: E. coli BL21(DE3), purified (nickel Sepharose, ULP1 cleavage, reversed phase); not shown: His6-SUMO, N-terminal, cleaved
On to B2, for which the Kd in test [1] was 380 ± 40 µM.

For B3, in test [2], the binding result is recorded as “binds”.

B4: PepDW (peptide)
peptide: Ac-DDTLWWENNWWDDED-NH2
notes: UBS1 of S. pombe Dss1 (O14140) with two extra tryptophans; also called double tryptophan; Pep42 (as soluble peptide); source: synthetic peptide, bought: TAG Copenhagen
Consider B4, for which the Kd in test [1] amounted to 1200 ± 90 µM.

B5: PepDMD (peptide)
peptide: Ac-DLWEDDWDLWEDDWD-NH2
notes: PepDM with the asparagines of the core substituted with aspartates; also called DMD peptide; source: synthetic peptide, bought: TAG Copenhagen
Turning to B5, binding in test [1] was put at a Kd of 480 ± 40 µM.

B6: PepDWD (peptide)
peptide: Ac-DDTLWWEDDWWDDED-NH2
notes: PepDW with the two asparagines of the core substituted with aspartates; also called DWD peptide; source: synthetic peptide, bought: TAG Copenhagen
B6: the affinity in test [1], expressed as Kd, was 600 ± 30 µM.

B7: PepDM (peptide)
peptide: Ac-DLWENNWDLWENNWD-NH2
notes: core motif WENNW of S. pombe Dss1 (O14140) repeated; also called double motif; Pep43 (as soluble peptide); source: synthetic peptide, bought: TAG Copenhagen
Take B7: in test [1], binding was characterised by a dissociation constant (Kd) of 1300 ± 120 µM.
